In paper PMC11929449, “Epitope-directed selection of GPCR nanobody ligands with evolvable function” (Proceedings of the National Academy of Sciences of the …, 2025):
Where a chain is given by its changes, count along the chain named. Names and notes keep the numbering of the source. Where two headings read alike, the source gives them in different places. Blank lines part the entries; values can stand above or below the binder they belong to.

What was measured:
[1] = biological target: T1, FLAG-tagged human angiotensin II type I receptor (FLAG-AT1R) (human); test: flow cytometry on cells; soluble nanobody titrated on Expi293F TetR cells expressing FLAG-AT1R, receptor pre-bound to losartan (10 μM, 5 μM in washes); 20 mM Hepes pH 7.4, 150 mM NaCl, 0.1% BSA, 4 °C; detected with αV5-AlexaFluor647; details: one partner purified
T1 construct: also called WT receptor; pMAS85; source: Expi293F TetR, transfected, purified in LMNG/CHS (M1-αFLAG resin, SEC); also Expi293F TetR cells stably expressing FLAG-AT1R under a tetracycline-inducible promoter, on intact cells; not shown: FLAG, N-terminal, kept
T1 chain: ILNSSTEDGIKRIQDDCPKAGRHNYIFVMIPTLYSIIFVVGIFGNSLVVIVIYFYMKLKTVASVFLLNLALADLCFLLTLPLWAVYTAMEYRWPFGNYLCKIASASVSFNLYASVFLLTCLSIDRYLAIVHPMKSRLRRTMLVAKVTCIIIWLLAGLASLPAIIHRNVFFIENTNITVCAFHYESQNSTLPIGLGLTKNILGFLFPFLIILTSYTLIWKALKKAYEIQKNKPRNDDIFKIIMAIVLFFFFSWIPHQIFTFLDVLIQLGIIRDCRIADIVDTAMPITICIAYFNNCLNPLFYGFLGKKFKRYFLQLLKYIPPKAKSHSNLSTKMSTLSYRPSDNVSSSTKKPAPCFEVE

[2] = biological target: T1, FLAG-tagged human angiotensin II type I …; test: flow cytometry on cells; soluble nanobody titrated on Expi293F TetR cells expressing FLAG-AT1R, unliganded receptor; 20 mM Hepes pH 7.4, 150 mM NaCl, 0.1% BSA, 4 °C; detected with αV5-AlexaFluor647; details: one partner purified
[3] = biological target: T2, FLAG-tagged wild-type human angiotensin II type I receptor (FLAG-AT1R) (Homo sapiens, UniProt P30556); test: flow cytometry on cells; purified nanobody (single point 250 or 500 nM, or titrated) on Expi293F TetR cells expressing FLAG-AT1R preincubated with 10 μM losartan at 4 °C for 30 min; detected with αV5-AlexaFluor647; 20 mM Hepes pH 7.4, 150 mM NaCl, 0.1% BSA; details: one partner purified
T2 construct: angiotensin II type I receptor (AT1R), human, wild type; The signalling assays used FLAG-AT1R in HEK293T or HTLA cells; also called WT receptor; source: Expi293F TetR, transfected, purified in LMNG/CHS (M1-αFLAG resin, SEC); also on intact Expi293F TetR cells stably expressing FLAG-AT1R under a tetracycline-inducible promoter; not shown: FLAG, N-terminal, kept

[4] = biological target: T2, FLAG-tagged wild-type human angiotensin …
[5] = biological target: T2, FLAG-tagged wild-type human angiotensin …; test: flow cytometry on cells; nanobody displayed on yeast; 100 nM unliganded detergent-purified FLAG-AT1R in solution, detected with fluorophore-conjugated M1-αFLAG; 4 °C, 30 min; 20 mM Hepes pH 7.5, 150 mM NaCl, 2.8 mM CaCl2, 0.05% LMNG, 0.005% CHS; details: one partner purified
[6] = biological target: FLAG-tagged wild-type human angiotensin II type I receptor (FLAG-AT1R) (human) (UniProt P30556); test: flow cytometry on cells; purified nanobody (single point 250 nM, or titrated) on Expi293F TetR cells expressing FLAG-AT1R preincubated with 10 μM olmesartan at 4 °C for 30 min; detected with αV5-AlexaFluor647; 20 mM Hepes pH 7.4, 150 mM NaCl, 0.1% BSA
[7] = biological target: T2, FLAG-tagged wild-type human angiotensin …; test: flow cytometry on cells; purified nanobody (single point 250 or 500 nM, or titrated) on Expi293F TetR cells expressing FLAG-AT1R, unliganded; 1 h; detected with αV5-AlexaFluor647; 20 mM Hepes pH 7.4, 150 mM NaCl, 0.1% BSA; details: one partner purified

T2 sequence (P30556 whole entry): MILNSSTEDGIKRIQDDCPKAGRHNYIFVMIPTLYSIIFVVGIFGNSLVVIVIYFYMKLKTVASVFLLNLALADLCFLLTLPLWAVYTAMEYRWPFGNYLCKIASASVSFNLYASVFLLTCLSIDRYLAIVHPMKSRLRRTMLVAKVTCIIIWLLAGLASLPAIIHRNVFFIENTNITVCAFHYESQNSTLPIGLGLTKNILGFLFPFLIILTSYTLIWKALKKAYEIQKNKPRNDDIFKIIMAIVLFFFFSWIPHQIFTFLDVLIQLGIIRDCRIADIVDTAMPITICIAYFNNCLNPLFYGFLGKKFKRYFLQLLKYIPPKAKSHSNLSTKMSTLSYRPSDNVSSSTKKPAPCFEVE

B1: AT118-H CDR1-AT206 CDR2 CDR3 chimeric nanobody (AT118-AT206) (VHH)
VHH: QVQLQESGGGLVQAGGSLRLSCAASDYIYRRYRMGWYRQAPGKEREFVAGIGVGTTTNYADSVKGRFTISRDNAKNTVYLQMNSLKPEDTAVYYCAAYNYFPRSIVYYYVYWGQGTQVTVSS
notes: AT206 with its CDR1 replaced by CDR1 of AT118-H and the G26D stabilising substitution; also called AT118-H G26D CDR1, AT206 CDR 2&3; source: E. coli BL21(DE3), periplasm, purified (Ni-NTA); not shown: V5, C-terminal, kept
Kd [1]: 153 nM
Kd [2]: 206 nM

B2: AT118-H CDR1-AT206 CDR2 CDR3 chimeric nanobody (AT118-AT206) (VHH)
VHH: B1 VHH
notes: as the chain of AT206 with CDR1 replaced by CDR1 of AT118-H and the stabilising substitution G26D; also called AT118-AT206 chimera; source: E. coli BL21(DE3), periplasm, purified (Ni-NTA); not shown: V5, C-terminal, kept
fold increase in affinity over AT206 [3]: 2 fold

binding result [4]: binds
B3: AT210 (VHH)
VHH: QVQLQESGGGLVQAGGSLRLSCAASGTISSWSFMGWYRQAPGKEREFVATIAPGSSTNYADSVKGRFTISRDNAKNTVYLQMNSLKPEDTAVYYCAVYYGVPRFHVYWGQGTQVTVSS

B4: AT208 (VHH)
VHH: QVQLQESGGGLVQAGGSLRLSCAASGYIFTRYRMGWYRQAPGKEREFVAAIGDGGTTNYADSVKGRFTISRDNAKNTVYLQMNSLKPEDTAVYYCAAYYVSRPNYGTIYVYWGQGTQVTVSS
notes: synthetic nanobody AT208; source: E. coli BL21(DE3), periplasm, purified (Ni-NTA); not shown: V5, C-terminal, kept
binding result [3]: binds

binding result [4]: binds
B5: AT203 (VHH)
VHH: QVQLQESGGLVQAGGSLRLSCAASGYISRSYDMGWYRQAPGKERELVASINEGSTTNYADSVKGRFTISRDNAKNTVYLQMNSLKPEDTAVYYCAAYTYGHGDYHVYWGQGTQVTVSS

B6: AT211 (VHH)
VHH: QVQLQESGGGLVQAGGSLRLSCAASGTISHSAGMGWYRQAPGKERELVAAISGGTITNYADSVKGRFTISRDNAKNTVYLQMNSLKPEDTAVYYCAALGYWRRAGGTYYVVHYYWGQGTQVTVSS
notes: synthetic nanobody AT211; source: E. coli BL21(DE3), periplasm, purified (Ni-NTA); not shown: V5, C-terminal, kept
binding result [3]: binds

binding result [4]: binds
B7: AT201 (VHH)
VHH: QVQLQESGGGLVQAGGSLRLSCAASGTISDPPYMGWYRQAPGKERELVAAIDVGANTYYADSVKGRFTISRDNAKNTVYLQMNSLKPEDTAVYYCAVEYDAQVPHQYWGQGTQVTVSS

binding result [4]: binds
B8: AT212 (VHH)
VHH: QVQLQESGGGLVQAGGSLRLSCAASGSISNYKYMGWYRQAPGKERELVATIGGGATTNYADSVKGRFTISRDNAKNTVYLQMNSLKPEDTAVYYCAAVRAGYSLYYPYFYYWGQGTQVTVSS

B9: AT207 (VHH)
VHH: QVQLQESGGGLVQAGGSLRLSCAASGYIFTHSSMGWYRQAPGKEREFVAAITVGANTNYADSVKGRFTISRDNAKNTVYLQMNSLKPEDTAVYYCAAYNPFYPVYIYWGQGTQVTVSS
notes: synthetic nanobody AT207; source: E. coli BL21(DE3), periplasm, purified (Ni-NTA); not shown: V5, C-terminal, kept
binding result [3]: binds

B10: nanobody AT206 (VHH)
VHH: QVQLQESGGGLVQAGGSLRLSCAASGSISYYRMGWYRQAPGKEREFVAGIGVGTTTNYADSVKGRFTISRDNAKNTVYLQMNSLKPEDTAVYYCAAYNYFPRSIVYYYVYWGQGTQVTVSS
notes: source: E. coli BL21(DE3), periplasm, purified (Ni-NTA); not shown: V5, C-terminal, kept
Kd [1]: 363 nM

B11: AT206 (VHH)
VHH: B10 VHH
notes: synthetic nanobody AT206; also in the deposited structures; also called parent clone of AT118-AT206; source: E. coli BL21(DE3), periplasm, purified (Ni-NTA); not shown: V5, C-terminal, kept
binding result [3]: binds

B12: AT206, yeast-displayed (VHH)
VHH: B10 VHH
notes: synthetic nanobody AT206; also in the deposited structures; the anchor is not described here
binding result [5]: binds

B13: AT205 (VHH)
VHH: QVQLQESGGGLVQAGGSLRLSCAASGYIFYDSVMGWYRQAPGKEREFVAAIAAGSSTNYADSVKGRFTISRDNAKNTVYLQMNSLKPEDTAVYYCGEYYNWLHQYWGQGTQVTVSS
notes: synthetic nanobody AT205; source: E. coli BL21(DE3), periplasm, purified (Ni-NTA); not shown: V5, C-terminal, kept
binding result [3]: binds

B14: AT209 (VHH)
VHH: QVQLQESGGGLVQAGGSLRLSCAASGYIFYRYSMGWYRQAPGKEREFVAGISYGATTNYADSVKGRFTISRDNAKNTVYLQMNSLKPEDTAVYYCAAWGGRTLYFVYWGQGTQVTVSS
Kd [6]: 100 nM

B15: AT209 L103D (VHH)
VHH: B14 VHH with L103D
notes: as the chain of AT209 with L103D in CDR3; also called AT209 L103D^CDR3; AT209 L103D variant; source: E. coli BL21(DE3), periplasm, purified (Ni-NTA); not shown: V5, C-terminal, kept
binding result [7]: binds

B16: nanobody AT209 L103D (VHH)
VHH: B14 VHH with L103D
notes: the substitution L103D is still to be applied; also called AT209 L103D^CDR3; source: E. coli BL21(DE3), periplasm, purified (Ni-NTA); not shown: V5, C-terminal, kept
Kd [2]: 144 nM

binding result [4]: binds
B17: AT213 (VHH)
VHH: QVQLQESGGGLVQAGGSLRLSCAASGYIFYGATMGWYRQAPGKEREFVAGINYGGSTNYADSVKGRFTISRDNAKNTVYLQMNSLKPEDTAVYYCAVWDTYAQRRSSYFVYWGQGTQVTVSS
